Positions count from the first letter of the chain named. Names and notes keep the numbering of the source.
T1: IFN-γ receptor (IFNGR1 and IFNGR2) (UniProt P15260 18-489; P38484 22-337, limits assumed)
T1 sequence (looked up) 1: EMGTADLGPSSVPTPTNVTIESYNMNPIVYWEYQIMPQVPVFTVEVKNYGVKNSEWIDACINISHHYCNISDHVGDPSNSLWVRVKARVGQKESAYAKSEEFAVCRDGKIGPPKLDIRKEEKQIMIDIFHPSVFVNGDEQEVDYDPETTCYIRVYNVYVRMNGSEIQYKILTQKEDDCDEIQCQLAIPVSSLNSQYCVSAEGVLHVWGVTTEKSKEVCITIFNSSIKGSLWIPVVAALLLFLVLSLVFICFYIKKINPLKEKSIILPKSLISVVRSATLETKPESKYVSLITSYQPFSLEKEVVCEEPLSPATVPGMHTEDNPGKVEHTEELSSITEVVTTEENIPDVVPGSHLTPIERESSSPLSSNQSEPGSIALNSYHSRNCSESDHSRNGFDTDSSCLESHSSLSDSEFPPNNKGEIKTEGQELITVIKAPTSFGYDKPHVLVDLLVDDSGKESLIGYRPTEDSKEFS
T1 sequence (looked up) 2: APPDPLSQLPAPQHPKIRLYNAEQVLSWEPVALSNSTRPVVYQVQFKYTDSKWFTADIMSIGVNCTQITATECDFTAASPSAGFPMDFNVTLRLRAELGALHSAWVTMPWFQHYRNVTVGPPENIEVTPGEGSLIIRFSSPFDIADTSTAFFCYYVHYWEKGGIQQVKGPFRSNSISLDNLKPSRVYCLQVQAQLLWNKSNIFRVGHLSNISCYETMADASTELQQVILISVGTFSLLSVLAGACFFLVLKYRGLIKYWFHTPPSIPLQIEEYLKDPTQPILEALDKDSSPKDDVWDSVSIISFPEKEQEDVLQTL

T2: human IL-2 receptor (IL-2Rα, IL-2Rβ, IL-2Rγ) (human, UniProt P01589 22-272; P14784 27-551; P31785 23-369)
T2 sequence (looked up) 1: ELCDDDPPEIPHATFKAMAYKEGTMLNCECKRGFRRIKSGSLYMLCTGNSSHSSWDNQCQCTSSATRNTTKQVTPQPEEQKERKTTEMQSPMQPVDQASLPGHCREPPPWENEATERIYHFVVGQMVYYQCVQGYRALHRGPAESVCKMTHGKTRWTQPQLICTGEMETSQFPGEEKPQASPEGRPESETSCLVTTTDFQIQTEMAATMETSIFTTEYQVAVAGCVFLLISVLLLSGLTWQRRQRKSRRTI
T2 sequence (looked up) 2: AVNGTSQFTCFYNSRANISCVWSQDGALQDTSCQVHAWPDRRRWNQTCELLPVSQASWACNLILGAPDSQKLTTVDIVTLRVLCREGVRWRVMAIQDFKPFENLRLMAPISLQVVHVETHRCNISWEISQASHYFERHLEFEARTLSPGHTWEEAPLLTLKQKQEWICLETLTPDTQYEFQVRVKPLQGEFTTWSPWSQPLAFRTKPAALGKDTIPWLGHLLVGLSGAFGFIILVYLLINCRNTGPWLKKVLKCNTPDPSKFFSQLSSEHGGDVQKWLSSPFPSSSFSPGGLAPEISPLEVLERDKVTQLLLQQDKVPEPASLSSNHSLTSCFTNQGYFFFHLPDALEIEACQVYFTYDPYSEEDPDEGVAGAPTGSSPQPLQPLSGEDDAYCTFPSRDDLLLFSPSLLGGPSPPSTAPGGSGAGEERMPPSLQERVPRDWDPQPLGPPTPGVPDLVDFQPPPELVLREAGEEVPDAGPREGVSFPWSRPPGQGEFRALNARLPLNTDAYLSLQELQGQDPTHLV
T2 sequence (looked up) 3: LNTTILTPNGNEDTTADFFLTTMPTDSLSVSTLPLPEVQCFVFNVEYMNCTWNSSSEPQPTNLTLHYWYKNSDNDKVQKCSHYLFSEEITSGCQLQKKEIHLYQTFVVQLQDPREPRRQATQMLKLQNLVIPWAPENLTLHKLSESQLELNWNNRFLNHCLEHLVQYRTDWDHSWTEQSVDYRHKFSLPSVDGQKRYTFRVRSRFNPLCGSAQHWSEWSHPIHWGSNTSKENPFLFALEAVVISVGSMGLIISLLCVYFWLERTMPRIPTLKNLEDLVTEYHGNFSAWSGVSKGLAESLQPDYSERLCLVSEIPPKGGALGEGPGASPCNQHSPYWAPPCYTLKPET

T3: mouse PD-1 (mouse, UniProt Q02242 25-167, limits assumed)
T3 construct: also called mPD-1
T3 sequence (looked up): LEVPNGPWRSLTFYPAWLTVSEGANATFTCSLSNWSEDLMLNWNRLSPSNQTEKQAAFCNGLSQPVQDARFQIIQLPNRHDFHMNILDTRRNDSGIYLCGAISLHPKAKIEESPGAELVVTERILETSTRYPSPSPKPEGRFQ

B1: IL-12(E59A/F60A)/IFN-γ(A23V/A23V)/PD-L1(mut2)-Fc (Fc fusion)
chain 1: FTVTVPKDLYVVEYGSNMTIECKFPVEKQLDLAALQVYWMMEDKNIIQFVHGEEDLKVQHSSYRQRARLLKDQLSLGNAALQITDVKLQDAGVYTCLIAYKGADYKRITVKVNAPYNKINQRILVVDPVTSEHELTCQAEGYPKAEVIWTSSDHQVLSGKTTTTNSKREEKLFNVTSTLRINTTTNEIFYCTFRRLDPEENHTAELVIPELPLAHPPNERGGGGSGGGIWELKKDVYVVELDWYPDAPGEMVVLTCDTPEEDGITWTLDQSSEVLGSGKTLTIQVKAAGDAGQYTCHKGGEVLSHSLLLLHKKEDGIWSTDILKDQKEPKNKTFLRCEAKNYSGRFTCWWLTTISTDLTFSVKSSRGSSDPQGVTCGAATLSAERVRGDNKEYEYSVECQEDSACPAAEESLPIEVMVDAVHKLKYENYTSSFFIRDIIKPDPPKNLQLKPLKNSRQVEVSWEYPDTWSTPHSYFSLTFCVQVQGKSKREKKDRVFTDKTSATVICRKNASISVRAQDRYYSSSWSEWASVPCSGGGGSGGGSGGGGSRNLPVATPDPGMFPCLHHSQNLLRAVSNMLQKARQTLEFYPCTSEEIDHEDITKDKTSTVEACLPLELTKNESCLNSRETSFITNGSCLASRKTSFMMALCLSSIYEDLKMYQVEFKTMNAKLLMDPKRQIFLDQNMLAVIDELMQALNFNSETVPQKSSLEEPDFYKTKIKLCILLHAFRIRAVTIDRVMSYLNASGGGGSGGGDKTHTCPPCPAPEDEGGPSVFLFPPKPKDTLMISRTPEVTCVVVDVSHEDPEVKFNWYVDGVEVHNAKTKPREEQYNSTYRVVSVLTVLHQDWLNGKEYKCKVSNKALPAPIEKTISKAKGQPREPQVYVYPPSREEMTKNQVSLTCLVKGFYPSDIAVEWESNGQPENNYKTTPPVLDEDGSFALVSKLTVDKSRWQQGNVFSCSVMHEALHNHYTQKSLSLSPGK
chain 2: FTVTVPKDLYVVEYGSNMTIECKFPVEKQLDLAALQVYWMMEDKNIIQFVHGEEDLKVQHSSYRQRARLLKDQLSLGNAALQITDVKLQDAGVYTCLIAYKGADYKRITVKVNAPYNKINQRILVVDPVTSEHELTCQAEGYPKAEVIWTSSDHQVLSGKTTTTNSKREEKLFNVTSTLRINTTTNEIFYCTFRRLDPEENHTAELVIPELPLAHPPNERGGGSGQDPYVKEAENLKKYFNAGHSDVVDNGTLFLGILKNWKEESDRKIMQSQIVSFYFKLFKNFKDDQSIQKSVETIKEDMNVKFFNSNKKKRDDFEKLTNYSVTDLNVQRKAIHELIQVMAELSPAAKTGKRKRSQMLFRGGGGSGGGGSGGGGSGGGGSQDPYVKEAENLKKYFNAGHSDVVDNGTLFLGILKNWKEESDRKIMQSQIVSFYFKLFKNFKDDQSIQKSVETIKEDMNVKFFNSNKKKRDDFEKLTNYSVTDLNVQRKAIHELIQVMAELSPAAKTGKRKRSQMLFRGGGGGSGGGDKTHTCPPCPAPEKKGGPSVFLFPPKPKDTLMISRTPEVTCVVVDVSHEDPEVKFNWYVDGVEVHNAKTKPREEQYNSTYRVVSVLTVLHQDWLNGKEYKCKVSNKALPAPIEKTISKAKGQPREPQVYVLPPSREEMTKNQVSLLCLVKGFYPSDIAVEWESNGQPENRYMTWPPVLDSDGSFFLYSKLTVDKSRWQQGNVFSCSVMHEALHNHYTQKSLSLSPGK
B2: IL-12(E59A/F60A)/IFN-γ(A23V/A23V)/PD-L1(mut7)-Fc (Fc fusion)
chain 1: B1 chain 1 with K101G
chain 2: B1 chain 2 with K101G
B3: PD-L1(mut2)-Fc, I54Q/E58M/R113T/M115L/S117A/G119K (Fc fusion)
chain 1: FTVTVPKDLYVVEYGSNMTIECKFPVEKQLDLAALQVYWMMEDKNIIQFVHGEEDLKVQHSSYRQRARLLKDQLSLGNAALQITDVKLQDAGVYTCLIAYKGADYKRITVKVNAPYNKINQRILVVDPVTSEHELTCQAEGYPKAEVIWTSSDHQVLSGKTTTTNSKREEKLFNVTSTLRINTTTNEIFYCTFRRLDPEENHTAELVIPELPLAHPPNERGGGGSGGGDKTHTCPPCPAPEDEGGPSVFLFPPKPKDTLMISRTPEVTCVVVDVSHEDPEVKFNWYVDGVEVHNAKTKPREEQYNSTYRVVSVLTVLHQDWLNGKEYKCKVSNKALPAPIEKTISKAKGQPREPQVYVYPPSREEMTKNQVSLTCLVKGFYPSDIAVEWESNGQPENNYKTTPPVLDEDGSFALVSKLTVDKSRWQQGNVFSCSVMHEALHNHYTQKSLSLSPGK
chain 2: B3 chain 1 with D242K, E243K, Y359L, T374L, N398R, K400M, T402W, E408S, A413F, V415Y
B4: IFN-γ(A23V/A23V)/PD-L1(mut2)-Fc (Fc fusion)
chain 1: B3 chain 1
chain 2: B1 chain 2

Assays:
[1] = molecular target: T4, human PD-1 on cells (HEK-PD-1 reporter cells; activated PBMC) (human, UniProt Q15116 25-288); test: cell-based or functional assay
[2] = molecular target: human IL-12 receptor complex (IL-12Rβ1 and IL-12Rβ2) (human, UniProt P42701 24-662; Q99665 24-862); test: cell-based or functional assay
[3] = molecular target: T1, IFN-γ receptor (IFNGR1 and IFNGR2); test: cell-based or functional assay
[4] = molecular target: T4, human PD-1 on cells (HEK-PD-1 reporter …); test: cell-based or functional assay; remark: listed apart in the source
[5] = molecular target: T2, human IL-2 receptor (IL-2Rα, IL-2Rβ, …); test: cell-based or functional assay
[6] = molecular target: T5, human PD-1 (human, UniProt Q15116 25-167, limits assumed); test: PD-L1-Fc format, calibrated on PD-L1(wt)-Fc, method not stated
T5 construct: also called hPD-1

[7] = molecular target: T3, mouse PD-1; test: as above

Sequence of human IL-12 receptor complex (IL-12Rβ1 and IL-12Rβ2) (Q99665 24-862, chain 2 of 2, other chains not shown): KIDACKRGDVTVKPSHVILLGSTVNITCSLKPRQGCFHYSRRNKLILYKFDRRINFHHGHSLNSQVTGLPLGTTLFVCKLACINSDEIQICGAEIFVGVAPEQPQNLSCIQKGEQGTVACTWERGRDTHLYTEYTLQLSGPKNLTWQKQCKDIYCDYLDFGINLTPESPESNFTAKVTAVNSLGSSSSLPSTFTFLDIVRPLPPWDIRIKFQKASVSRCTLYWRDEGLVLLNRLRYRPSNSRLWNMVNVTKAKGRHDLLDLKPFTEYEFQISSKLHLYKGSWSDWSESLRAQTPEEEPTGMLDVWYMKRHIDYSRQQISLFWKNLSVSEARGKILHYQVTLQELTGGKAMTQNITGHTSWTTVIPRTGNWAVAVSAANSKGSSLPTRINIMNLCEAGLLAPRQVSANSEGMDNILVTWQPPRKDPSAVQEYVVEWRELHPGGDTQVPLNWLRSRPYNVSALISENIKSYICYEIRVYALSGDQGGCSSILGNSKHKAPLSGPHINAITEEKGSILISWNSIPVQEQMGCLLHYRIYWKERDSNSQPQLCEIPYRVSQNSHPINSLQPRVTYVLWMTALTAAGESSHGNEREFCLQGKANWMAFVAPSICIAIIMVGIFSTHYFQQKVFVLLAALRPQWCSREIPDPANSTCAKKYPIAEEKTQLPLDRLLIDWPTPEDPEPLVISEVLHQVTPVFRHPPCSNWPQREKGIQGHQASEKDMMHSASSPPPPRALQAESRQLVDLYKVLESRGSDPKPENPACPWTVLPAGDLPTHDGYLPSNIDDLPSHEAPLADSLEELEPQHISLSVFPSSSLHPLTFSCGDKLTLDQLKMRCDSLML
T4 sequence (Q15116 25-288): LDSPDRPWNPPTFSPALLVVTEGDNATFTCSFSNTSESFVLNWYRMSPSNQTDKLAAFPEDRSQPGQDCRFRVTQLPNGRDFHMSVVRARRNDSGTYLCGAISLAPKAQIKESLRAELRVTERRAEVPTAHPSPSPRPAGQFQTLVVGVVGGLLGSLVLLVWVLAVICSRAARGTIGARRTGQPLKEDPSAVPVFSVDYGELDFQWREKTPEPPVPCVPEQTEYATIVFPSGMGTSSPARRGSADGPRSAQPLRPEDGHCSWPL
T5 sequence (Q15116 25-167 limits assumed): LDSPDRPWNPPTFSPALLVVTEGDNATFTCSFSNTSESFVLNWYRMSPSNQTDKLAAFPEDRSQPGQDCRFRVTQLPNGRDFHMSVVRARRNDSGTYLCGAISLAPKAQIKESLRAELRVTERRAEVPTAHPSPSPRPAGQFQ

Binder | IFN-γ signal transduction, HEK-IFN-γ-PD-1 [1] [%] | IL-12 signal transduction, HEK-IL-12-PD-1 [1] [%] | IL-12 signal transduction, HEK-IL-12 [2] [%] | IFN-γ signal transduction, HEK-IFN-γ [3] [%] | IL-2 signal transduction, HEK-IL-2-PD-1 [4] [%] | IL-2 signal transduction, HEK-IL-2 [5] [%] | Kd [6] [nM] | Kd [7] [nM]
B1 | 39 | 32 | < 0.2 | < 0.1 |  |  |  | 
B2 | 45 | 43 | < 0.2 | < 0.1 |  |  |  | 
B3 |  |  |  |  | < 0.1 | < 0.1 | 150 | 120
B4 | 44 | < 0.2 | < 0.2 | < 0.1 |  |  |  | 
